Data taken from the DeepSol protein solubility set.

Assay: soluble on expression in E. coli; label from the status in PepcDB or PDB records

Sequence	soluble on expression in E. coli
MGSDKIHHHHHHMISMTQNNVEKWGTYEITLKGKAEGNPFTDVEIKAVFTSEAGDSFEVEGFYDGEDTFKIRFMPNRTGLWKYEVRSDIKDLDGMKGEFLCVDPSEGNHGPVRVCNTYHFCYEDGTPYHPFGTTLYAWVHQREELIQQTLESLRNSPFNKVRMCVFPKYYAYNREEPPMLPMSWREEDGRYQVEFNVKFFQHFERLVKELMDMGIEADVILFHPYDKWGFCSMPEEVDKAYLRYLIARISSYRNVWWSMANEYDLIKPQKDWDGYFHFIVEKDPYNHLRSVHQCFKFYDHTKPWITHASIQWQGSLRSWSGEPEIDIGINLIPKWREMYKKPVIIDECGYEGNIEYGWGNLPPQEMMNRFWEGVTSGGYVTHGETYYSEDEVLWWSKGGRLKGESPKRIAFLRTIIEEAPPFLKPIKLDPMMDWDVHCIGKEGEYYLIYFDINRPVKRTLKLPEGKYRVDLVDCWETEIHSLGIFQGQVVIRLPGKSYVALRIQKMENNDDWIILREDAKL	not soluble
DYIVEKLNMTKMYDIFSQYLPPQVFINDDSVVHLVRNSIYYKKMRGKHDLVILAGDFQGTTQEAQYELSYQVLQIAKEIGVSMIYTLGGYSIGKIVDKPRVLGAVTDKNLVADLEKNGVVFPKGE	not soluble
MGHHHHHHSHMVNVKGSTKKSNLDRFLHCITPLVPPQSLPKTEIRTLNRLWHPWERQKVEFFRLSDLWDCYDEWSAYGASVPIHVTNGESLVQYYVPYLSAIQIFTSHSSLIRLREESEDGECEGRDPFSDSGSDESVSEEGLENNTLLHPSDRLGYLYLQYFERSAPYTRVPLMDKINELAQRYPGLMSLRSVDLSPASWMSVAWYPIYHIPMGRTIKDLSTCFLTYHTLSSSFQDMEPEENGGDKERVRREGEDITLLPFGMATYKMQGDVWLSQDHDDQERLASLYSVADSWLKQLRVQHHDFNYFCNMSMTHRG	soluble
MALIRATLPVVEPGRTEIHLPHWDGIEQQHGFIHGGVVGMIADSAAGYAAMTLVPAEASVLTVEYKMNLMAPAEGERLIARGEVVRAGRTLIVTRAEVLALRDGAERLCALMQQTIMVMHARPEKLDAPPAALEHHHHHH	not soluble
MKTAYIAKQRQISFVKSHFSRQLEERLGLIEVQAPILSRVGDGTQDNLSGAEKAVQVKVKALPDAQFEVVHSLAKWKRQTLGQHDFSAGEGLYTHMKALRPDEDRLSPLHSVYVDQWDWERVMGDGERQFSTLKSTVEAIWAGIKATEAAVSEEFGLAPFLPDQIHFVHSQELLSRYPDLDAKGRERAIAKDLGAVFLVGIGGKLSDGHRHDVRAPDYDDWSTPSELGHAGLNGDILVWNPVLEDAFELSSMGIRVDADTLKHQLALTGDEDRLELEWHQALLRGEMPQTIGGGIGQSRLTMLLLQLPHIGQVQAGVWPAAVRESVPSLL	soluble
MGSDKIHHHHHHMREEWLFSRYLNRKRVQRAASLGAGRAETEIALLELGAVEHFDLFDVSSVGIEYAKSIAEEKGFGHKVTCHVGPIGCAELNENTYDLITFVASLHHMEPLAETLERANRALTQHGIIWCANEYIGPDRFDYPVAHAAIAKSFFQQIPPGLRNHWHRELQFPTPQEVAEVDPTEAPCSSKIEPTMRDMFPALEIMPLYGAFAFMVFWGLNHDALYETPEGTELTRFILGMDKALTDAGILPTYFAHIIARKNNAPRQQIHRPGRHSSALLYRYAQRAASILRHLKIR	not soluble
MGSDKIHHHHHHMRRNQVAIVGAAETTKLGVIPDMSQIQLHADAALNAIADAGLKLSDIDGIATAVETPQQIAHYLGITPTWVDGTSVGGCSFMLHVRHAAAAIEAGLCKTVLITHAESGKSMIGKLPRSIPADSLQGQFEAPYGIYGPPSQFPIPVLRFMKTHGITHEQIASVAVVQREWAAKNPRAMMKDPITVADVLNSRMIAYPFRLLQCCLVTDGGGALIMTSADRAKDFPHKPVYVLGTGESVETPMVSQMETFNSSRAFKVAGPTAFREAGISHSDVDHLMIYDAFAHLPLFGLGDLGFMPYEETGKFIADGNTRPGGKLPLNTNGGGLSYMHSGMYGMYALQESVRQMRGIAPAQVPNAKISVCHGVGGMFAASGTIIFTNEK	not soluble
MFIQTEATPNPATLKFLPGKVVLESGTVEFLNASQAQASPLAERLFTIPGVTGVYFGFDFITVTKDDAEWQHLKPAILGSIMEHFMSGRPIMGTAIAAEVSDEEGEFFEEGDETIVATIKELLDTRVRPAVAQDGGDITFRGFRDGTVFLNMKGACSGCPSSTATLKHGVQNLLRHFVPEVREVEAV	not soluble
MSLETTHSFGDRAVFAFGKHTGKIFKYAPRVLKDQDPEDLHQLRVGVRRLRTAVIGFMPAVQLPQGITERKIGKIGQQLGVQRDNDVLQEILLHKYLPHLPTSEQGCLEKVLKRLQKERKQAFKATYKLLTHDKFTQFKQSWEIWLEHPHFTSLGGLAIADVLPDLLLPQLSQFFLHPGWLVGTEIDPDTNSSNRQRRCIDLSPTAIETLLDGEESILHDLRKEAKRTRYQMELFSDYFGEEYQQLLAQVKMTQEILGNLQDSFVLRAMVEQYLDVDLKQLCPQWSAIFHGDRLGYWDQWQPLQSQFIDPVYRHHCRQLVQNPLVNSDQPTSSNLEGHHHHHH	soluble
MGSDKIHHHHHHMELFRLHYFLELCKVKQFTKAAENLAISQAALSKQIKILEATLGAELFNRQGQTTTLTPAGLILEKYCWRITNELVSIEEELKEINHSSNHIYVATYLCDLEYKLNDLLMTTLTDRSSNLQVHTIITENILQSLETMDADFGISFADLPLPEHIGKIDLFTANYQFILRNDHPALAKATTEEILKELTMYPFVRLNTEFSEQNKLTNWLDTTFSNFSPEKVIQVDTLSLITHLVSHSDSFAIVPEYTNIQLLDNSIHTLTYQELPKRNMAVYYLKERYMSRQLQQLLAECQKQFQ	not soluble
MGSSHHHHHHSSGLVPRGSHMASNPNDDMPVDKILEAELISDPKVEQVVPFEQVNENDPVSNICKAADRQLVTLVEWAKRIPHFSSLPLEDQVILLRAGWNELLIASFSHRSIDVKDSILLASGLHVHRHSAHQAGVGPIFDRVLTELVSKMRDMMMDKTELGCLRAVVLFNPDVKNPSDSAHIESLREKVYASLEAYCRSKYPDQPGRFAKLLLRLPALRSIGLKCLEHLFFFKLIGDTPIDKFLMNMLETTSDFPV	soluble
MGSDKIHHHHHHMRIFLVGMMGSGKSTIGKRISEVLDLQFIDMDEEIERREGRSVRRIFEEDGEEYFRLKEKELLKELVERDNVVVATGGGVVVDPENRELLKKEKTLFLYAPPEVLMERVTTENRPLLSEGKERIREIWEKRKQFYAEFRRIDTSRLNEWETTALVVLEALDEKEISTIEKPHLVKIILGGFKRVRNEELVFTTERVEKIYGRYLPENRLLFPDGEEVKTLEHVSRAYYELIRMDFPRGKTIAGVGGGALTDFTGFVASTFKRGVGLSFYPTTLLAQVDASVGGKNAIDFAGVKNVVGTFRMPDYVIIDPTVTLSMDEGRFEEGVVEAFKMTILSGRGVELFDEPEKIEKRNLRVLSEMVKISVEEKARIVMEDPYDMGLRHALNLGHTLGHVYEMLEGVPHGIAVAWGIEKETMYLYRKGIVPKETMRWIVEKVKQIVPIPVPSVDVEKARNLILNDKKILKGSRVRLPYVKEIGKIEFLEVDPLELLEVVD	not soluble
MGHHHHHHSHMSNTDASGEKRVTGTSERREQIIQRLRQQGSVQVNDLSALYGVSTVTIRNDLAFLEKQGIAVRAYGGALICDSTTPSVEPSVEDKSALNTAMKRSVAKAAVELIQPGHRVILDSGTTTFEIARLMRKYTDVIAMTNGMNVANALLEAEGVELLMTGGHLRRQSQSFYGDQAEQSLQNYHFDMLFLGVDAIDLERGVSTHNEDEARLSRRMCEVAERIIVVTDSSKFNRSSLHKIIDTQRIDMIIVDEGIPADSLEGLRKAGVEVILVGDHASSL	soluble
MSLNALIEELKRLLKECATKKIVVIGECVRDVFVNTQRLSGPSDYQYTITKQLQRREFPGGAYPVARDLSNFVSKVHFVTCSTHEFPTNLERMDVIPISRERISKTRFFSGHNSNIFHYHCVFSEEITLSLTPLQELASVFSEADLVIVLDYGHGLLNSDVRKSISQNARFVALNCQANEDKYPFHQIWKYESTDLLLLNKVEAEINLLKTGVPVQELALRLHSKFKSTYTIVTDAEHGAVIQHDYRAYSSPAMSSCVVDAVGCSDIMLGFAALAAQNGKSAEEILYFASVAAGAKTMINVHERPLSREDLYEIALGVQNEGHHHHHH	not soluble
MSLTIAHLTSSAFAVNKERNKFLMIHHNIYNSWAWTGGHSDNEKDQLKVAIKELKEETGVKNPTPLLDKAFALDVLTVNGHIKRGKYVSSHLHLNLTYLIECSEDETLMLKEDENSGVMWIPFNEISKYCSEPHMIPIYEKLINKLKTQSKEGHHHHHH	not soluble
MGSDKIHHHHHHMEHIQSSIEKILNRPDVAESVRAIHQRVLSHPGVIMFLRTHPEIDQRMIERGMLKLNEYAEQMNGNQIIEKKAVIEGYQPVLHLEKGQIMVAYEKTQALRDRENERALEKKFKSLFLPDEVRDANFSDFDLTTTDRKLALRAASQFLNTVRSKQQVKGLYLHGSFGVGKTYLLAAIGNALKKERVATILVHAPGFVSEAKRRIRSDSFDTFLESFQTVPVLLIDDIGAESISPWVRDELFGIILQYRMMHRLPTLFSSNLSYDELELHFGITNDQGDKLKAMRLMERIRTTTNPVEFLGENRRRY	not soluble
MAEIIFNLSADDEGIGKHNYLCSLISQQSARCISGYVFSSSGFGESTTDVVFAGNGLIYENGYLLARSERFCMEEQLIINEIDVECIRAERRVNTTFAANKANCPGKEAVRISTEFVNSKDLNLTRTFNPHPFVPQGNELNSRLEHHHHHH	not soluble
MGHHHHHHSHMAIVEHLYQQGMLSVAEELCQESTLNVDLDFKQPFLELNRILEALHEQDLGPALEWAVSHRQRLLELNSSLEFKLHRLHFIRLLAGGPAKQLEALSYARHFQPFARLHQREIQVMMGSLVYLRLGLEKSPYCHLLDSSHWAEICETFTRDACSLLGLSVESPLSVSFASGCVALPVLMNIKAVIEQRQCTGVWNHKDELPIEIELGMKCWYHSVFACPILRQQTSDSNPPIKLICGHVISRDALNKLINGGKLKCPYCPMEQNPADGKRIIF	not soluble
MAEAATPGTTATTSGAGAAAATAAAASPTPIPTVTAPSLGAGGGGGGSDGSGGGWTKQVTCRYFMHGVCKEGDNCRYSHDLSDSPYSVVCKYFQRGYCIYGDRCRYEHSKPLKQEEATATELTTKSSLAASSSLSSIVGPLVEMNTGEAESRNSNFATVGAGSEDWVNAIEFVPGQPYCGRTAPSCTEAPLQGSVTKEESEKEQTAVETKKQLCPYAAVGECRYGENCVYLHGDSCDMCGLQLLHPMDAAQRSQHIKSCIEAHEKDMELSFAVQRSKDMVCGICMEVVYEKANPSERRFGILSNCNHTYCLKCIRKWRSAKQFESKIIKSCPECRITSNFVIPSEYWVEEKEEKQKLILKYKEAMSNKACRYFDEGRGSCPFGGNCFYKHAYPDGRREEPQRQKVGTSSRYRAQRRNHFWELIEERENSNPFDNDEEEVVTFELGEMLLMLLAAGGDDELTDSEDEWDLFHDELEDFYDLDL	soluble
MSDTHGKFIWVELMTPDMEAAARFYGHVVGWQTKDFGSPEMPYLVLEADGKGMGGVMELTEEHKGQGIPPNWTAYVDVDDVDATAKLFADKGGAIRRPPQDIPEIGRFAVVADPYGAVLCIMTPLPMETGGFPEDMQEKKGHVGWYELFTDNVDEAMAFYGEVFGWTKDHDFDMGEMGPYRIFAHKGKAVGGIMKRMPQVPVCHWGYYFNVDGIEDAITRVSTGGGKVVNGPMEVPGESWIVNCVDPQGAYFSLVSQKK	not soluble
